# How the values were obtained:
# [1] = target: human pro B-type natriuretic peptide (HyTest, Turku, Finland; Catalog No. 8PRO8) (human); assay: sandwich CMIA, capture 15F11, 288.7 pM, against human NT-proBNP
# [2] = target: glycosylated human proBNP (HyTest, Turku, Finland; Catalog No. 8GOB2) (human); assay: as above
# [3] = target: human pro B-type natriuretic peptide (HyTest, Turku, Finland; Catalog No. 8PRO8) (human); assay: sandwich CMIA, capture 15F11, against human NT-proBNP
# [4] = target: human NT-pro B-type natriuretic peptide (HyTest, Turku, Finland; Catalog No. 8NT1) (human); assay: sandwich CMIA, capture 15C4, analyte 43.3 pM
# [5] = target: human pro B-type natriuretic peptide (HyTest, Turku, Finland; Catalog No. 8PRO8) (human); assay: sandwich CMIA, capture 15C4, analyte 43.3 pM
# [6] = target: glycosylated human proBNP (HyTest, Turku, Finland; Catalog No. 8GOB2) (human); assay: sandwich CMIA, capture 15C4, analyte 43.3 pM
# [7] = target: human NT-pro B-type natriuretic peptide (HyTest, Turku, Finland; Catalog No. 8NT1) (human); assay: sandwich CMIA, capture 15F11, analyte 288.7 pM
# [8] = target: human pro B-type natriuretic peptide (HyTest, Turku, Finland; Catalog No. 8PRO8) (human); assay: sandwich CMIA, capture 15F11, analyte 288.7 pM
# [9] = target: glycosylated human proBNP (HyTest, Turku, Finland; Catalog No. 8GOB2) (human); assay: sandwich CMIA, capture 15F11, analyte 288.7 pM
# [10] = target: human NT-pro B-type natriuretic peptide (HyTest, Turku, Finland; Catalog No. 8NT1) (human); assay: sandwich CMIA, capture 15C4, analyte 0.0 pM (blank)
# [11] = target: human pro B-type natriuretic peptide (HyTest, Turku, Finland; Catalog No. 8PRO8) (human); assay: as above
# [12] = target: glycosylated human proBNP (HyTest, Turku, Finland; Catalog No. 8GOB2) (human); assay: as above
# [13] = target: human NT-pro B-type natriuretic peptide (HyTest, Turku, Finland; Catalog No. 8NT1) (human); assay: sandwich CMIA, capture 15F11, analyte 0.0 pM (blank)
# [14] = target: human pro B-type natriuretic peptide (HyTest, Turku, Finland; Catalog No. 8PRO8) (human); assay: as above
# [15] = target: glycosylated human proBNP (HyTest, Turku, Finland; Catalog No. 8GOB2) (human); assay: as above
# [16] = target: human NT-pro B-type natriuretic peptide (HyTest, Turku, Finland; Catalog No. 8NT1) (human); assay: sandwich CMIA, capture 15C4, analyte 86.6 pM
# [17] = target: human pro B-type natriuretic peptide (HyTest, Turku, Finland; Catalog No. 8PRO8) (human); assay: sandwich CMIA, capture 15C4, analyte 86.6 pM
# [18] = target: glycosylated human proBNP (HyTest, Turku, Finland; Catalog No. 8GOB2) (human); assay: sandwich CMIA, capture 15C4, analyte 86.6 pM
# [19] = target: human NT-pro B-type natriuretic peptide (HyTest, Turku, Finland; Catalog No. 8NT1) (human); assay: sandwich CMIA, capture 15F11, analyte 86.6 pM
# [20] = target: human pro B-type natriuretic peptide (HyTest, Turku, Finland; Catalog No. 8PRO8) (human); assay: sandwich CMIA, capture 15F11, analyte 86.6 pM
# [21] = target: glycosylated human proBNP (HyTest, Turku, Finland; Catalog No. 8GOB2) (human); assay: sandwich CMIA, capture 15F11, analyte 86.6 pM
# [22] = target: human NT-pro B-type natriuretic peptide (HyTest, Turku, Finland; Catalog No. 8NT1) (human); assay: sandwich CMIA, capture 15C4, analyte 288.7 pM
# [23] = target: human pro B-type natriuretic peptide (HyTest, Turku, Finland; Catalog No. 8PRO8) (human); assay: sandwich CMIA, capture 15C4, analyte 288.7 pM
# [24] = target: glycosylated human proBNP (HyTest, Turku, Finland; Catalog No. 8GOB2) (human); assay: sandwich CMIA, capture 15C4, analyte 288.7 pM
# [25] = target: human pro B-type natriuretic peptide (HyTest, Turku, Finland; Catalog No. 8PRO8) (human); assay: sandwich CMIA, capture 15F11, 577.4 pM, against human NT-proBNP
# [26] = target: glycosylated human proBNP (HyTest, Turku, Finland; Catalog No. 8GOB2) (human); assay: as above
# [27] = target: human NT-pro B-type natriuretic peptide (HyTest, Turku, Finland; Catalog No. 8NT1) (human); assay: sandwich CMIA, capture 15F11, analyte 577.4 pM
# [28] = target: human pro B-type natriuretic peptide (HyTest, Turku, Finland; Catalog No. 8PRO8) (human); assay: sandwich CMIA, capture 15F11, analyte 577.4 pM
# [29] = target: glycosylated human proBNP (HyTest, Turku, Finland; Catalog No. 8GOB2) (human); assay: sandwich CMIA, capture 15F11, analyte 577.4 pM
# [30] = target: human NT-pro B-type natriuretic peptide (HyTest, Turku, Finland; Catalog No. 8NT1) (human); assay: sandwich CMIA, capture 15F11, analyte 43.3 pM
# [31] = target: human pro B-type natriuretic peptide (HyTest, Turku, Finland; Catalog No. 8PRO8) (human); assay: sandwich CMIA, capture 15F11, analyte 43.3 pM
# [32] = target: glycosylated human proBNP (HyTest, Turku, Finland; Catalog No. 8GOB2) (human); assay: sandwich CMIA, capture 15F11, analyte 43.3 pM
# [33] = target: human NT-pro B-type natriuretic peptide (HyTest, Turku, Finland; Catalog No. 8NT1) (human); assay: sandwich CMIA, capture 15C4, analyte 577.4 pM
# [34] = target: human pro B-type natriuretic peptide (HyTest, Turku, Finland; Catalog No. 8PRO8) (human); assay: sandwich CMIA, capture 15C4, analyte 577.4 pM
# [35] = target: glycosylated human proBNP (HyTest, Turku, Finland; Catalog No. 8GOB2) (human); assay: sandwich CMIA, capture 15C4, analyte 577.4 pM
# [36] = target: human pro B-type natriuretic peptide (HyTest, Turku, Finland; Catalog No. 8PRO8) (human); assay: sandwich CMIA, capture 15F11, 43.3 pM, against human NT-proBNP
# [37] = target: glycosylated human proBNP (HyTest, Turku, Finland; Catalog No. 8GOB2) (human); assay: as above
# [38] = target: human pro B-type natriuretic peptide (HyTest, Turku, Finland; Catalog No. 8PRO8) (human); assay: sandwich CMIA, capture 15F11, 86.6 pM, against human NT-proBNP
# [39] = target: glycosylated human proBNP (HyTest, Turku, Finland; Catalog No. 8GOB2) (human); assay: as above
# Chain of human NT-pro B-type natriuretic peptide (HyTest, Turku, Finland; Catalog No. 8NT1) (human) (chain, as listed by the source): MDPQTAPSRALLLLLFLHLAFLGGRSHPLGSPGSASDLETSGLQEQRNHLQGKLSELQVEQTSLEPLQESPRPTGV
# Chain of human pro B-type natriuretic peptide (HyTest, Turku, Finland; Catalog No. 8PRO8) (human) (chain, as listed by the source): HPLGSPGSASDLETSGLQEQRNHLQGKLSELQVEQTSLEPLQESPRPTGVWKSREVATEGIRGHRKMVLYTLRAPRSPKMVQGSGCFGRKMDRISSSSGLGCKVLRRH
Substance,Analyte rlus [4] [rlus],Analyte rlus [5] [rlus],Analyte rlus [6] [rlus],Analyte rlus [7] [rlus],Analyte rlus [8] [rlus],Analyte rlus [9] [rlus],Analyte rlus [10] [rlus],Analyte rlus [11] [rlus],Analyte rlus [12] [rlus],Analyte rlus [13] [rlus],Analyte rlus [14] [rlus],Analyte rlus [15] [rlus],Analyte rlus [16] [rlus],Analyte rlus [17] [rlus],Analyte rlus [18] [rlus],Analyte rlus [19] [rlus],Analyte rlus [20] [rlus],Analyte rlus [21] [rlus],Analyte rlus [22] [rlus],Analyte rlus [23] [rlus],other results
"anti-human NT proBNP/anti-human proBNP monoclonal antibody 15C4 (HyTest, Turku, Finland)",1980,2180,1800,312000,2190,1580,1940,1940,1940,1340,1340,1340,2000,1820,1880,57200,1540,2010,2060,1880,% Cross-reactivity [1]: 0.3%; % Cross-reactivity [2]: 0.1%; % Cross-reactivity [3]: < 1%; Analyte rlus [24]: 1860 rlus; % Cross-reactivity [25]: 0.3%; % Cross-reactivity [26]: 0%; Analyte rlus [27]: 662000 rlus; Analyte rlus [28]: 3360 rlus; Analyte rlus [29]: 1450 rlus; Analyte rlus [30]: 21200 rlus; Analyte rlus [31]: 1490 rlus; Analyte rlus [32]: 1260 rlus; Analyte rlus [33]: 2080 rlus; Analyte rlus [34]: 1960 rlus; Analyte rlus [35]: 1790 rlus; % Cross-reactivity [36]: 0.7%; % Cross-reactivity [37]: -0.4%; % Cross-reactivity [38]: 0.4%; % Cross-reactivity [39]: 1.2%
"anti-human NT proBNP/anti-human proBNP monoclonal antibody 15F11 (HyTest, Turku, Finland)",883,851,1010,977,949,925,847,847,847,912,912,912,998,1040,835,929,963,886,1140,945,Analyte rlus [24]: 930 rlus; Analyte rlus [27]: 1010 rlus; Analyte rlus [28]: 897 rlus; Analyte rlus [29]: 953 rlus; Analyte rlus [30]: 904 rlus; Analyte rlus [31]: 857 rlus; Analyte rlus [32]: 899 rlus; Analyte rlus [33]: 1370 rlus; Analyte rlus [34]: 917 rlus; Analyte rlus [35]: 859 rlus
"anti-human NT-proBNP/anti-human proBNP labeled monoclonal antibody 7B5 (HyTest, Turku, Finland)",750,686,606,593,556,525,590,590,590,615,615,615,719,641,581,549,529,505,1180,607,Analyte rlus [24]: 672 rlus; Analyte rlus [27]: 534 rlus; Analyte rlus [28]: 612 rlus; Analyte rlus [29]: 600 rlus; Analyte rlus [30]: 615 rlus; Analyte rlus [31]: 589 rlus; Analyte rlus [32]: 528 rlus; Analyte rlus [33]: 2180 rlus; Analyte rlus [34]: 726 rlus; Analyte rlus [35]: 800 rlus
